Test results from patent US20120135923A1, “Use of Melanocortins to Treat Dyslipidemia” (IPSEN PHARMA, S.A.S., priority 2009, published 2012).
Bridge positions count the residues as written; N and C are the ends. Square brackets hold non-standard residues; d marks the D form. Ends that are not written are not given here. Bip = N[C@@H](Cc1ccc(-c2ccccc2)cc1)C(=O)O; Bta = N[C@@H](Cc1csc2ccccc12)C(=O)O; hArg = N=C(N)NCCCC[C@H](N)C(=O)O; Pen = CC(C)(S)[C@H](N)C(=O)O; Nle = CCCC[C@H](N)C(=O)O; Ava = NCCCCC(=O)O; GABA = NCCCC(=O)O; βAla = NCCC(=O)O

B1: Ac-Nle-c(Cys-His-D-Phe-Arg-Trp-Gaba-Pen)-NH2 (peptide)
peptide: Ac-[Nle]CH[dF]RW[GABA][Pen]-NH2
modifications: disulfide 2-8
B2: Hydantoin(C(O)-(Arg-Gly))-c(Cys-D-Ala-His-D-2-Nal-Arg-Trp-Cys)-NH2 (peptide)
peptide: RGCAHXRWC
modifications: residues 1-2 joined in a hydantoin ring (C(O)); D-Ala4; X6=D-2-Nal; Cys3-Cys9 disulfide; C-terminal amide
B3: Nle-c(Cys-His-D-Phe-Arg-Trp-Gaba-Cys)-NH2 (peptide)
peptide: [Nle]CH[dF]RW[GABA]C-NH2
modifications: disulfide 2-8
B4: c[Hydantoin(C(O)-(Gly-Cys))-Glu-His-D-Phe-Arg-Trp-Cys]-NH2 (peptide)
peptide: GCEH[dF]RWC-NH2
modifications: disulfide 2-8; also: residues 1-2 joined in a hydantoin ring (C(O))
B5: Ac-Nle-c(Cys-His-D-Phe-Arg-Trp-Apn-Cys)-NH2 (peptide)
peptide: Ac-[Nle]CH[dF]RW[Ava]C-NH2
modifications: disulfide 2-8
SMILES: CCCC[C@H](NC(C)=O)C(=O)N[C@H]1CSSC[C@@H](C(N)=O)NC(=O)CCCCNC(=O)[C@H](Cc2c[nH]c3ccccc23)NC(=O)[C@H](CCCNC(=N)N)NC(=O)[C@@H](Cc2ccccc2)NC(=O)[C@H](Cc2c[nH]cn2)NC1=O
B6: D-Phe-c(Cys-His-D-(Et)Tyr-hArg-Trp-β-Ala-D-Cys)-Thr-NH2 (peptide)
peptide: [dF]CH[d(Et)Tyr][hArg]W[βAla][dC]T-NH2
modifications: disulfide 2-8
B7: D-Phe-c(Cys-His-D-(Et)Tyr-hArg-Bip-β-Ala-D-Cys)-Thr-NH2 (peptide)
peptide: [dF]CH[d(Et)Tyr][hArg][Bip][βAla][dC]T-NH2
modifications: disulfide 2-8
B8: Ac-Nle-c(Asp-D-Ala-His-D-Phe-Arg-Bal-Lys)-NH2 (peptide)
peptide: Ac-[Nle]D[dA]H[dF]R[Bta]K-NH2
modifications: lactam 2-8
SMILES: CCCC[C@H](NC(C)=O)C(=O)N[C@H]1CC(=O)NCCCC[C@@H](C(N)=O)NC(=O)[C@H](Cc2csc3ccccc23)NC(=O)[C@H](CCCNC(=N)N)NC(=O)[C@@H](Cc2ccccc2)NC(=O)[C@H](Cc2c[nH]cn2)NC(=O)[C@@H](C)NC1=O
B9: Ac-Nle-c(Cys-D-Leu-His-D-Phe-Arg-Trp-Cys)-NH2 (peptide)
peptide: Ac-[Nle]C[dL]H[dF]RWC-NH2
modifications: disulfide 2-8
SMILES: CCCC[C@H](NC(C)=O)C(=O)N[C@H]1CSSC[C@@H](C(N)=O)NC(=O)[C@H](Cc2c[nH]c3ccccc23)NC(=O)[C@H](CCCNC(=N)N)NC(=O)[C@@H](Cc2ccccc2)NC(=O)[C@H](Cc2c[nH]cn2)NC(=O)[C@@H](CC(C)C)NC1=O
B10: D-Phe-c(Cys-His-D-Phe-hArg-Trp-β-Ala-D-Cys)-Thr-NH2 (peptide)
peptide: [dF]CH[dF][hArg]W[βAla][dC]T-NH2
modifications: disulfide 2-8; N-terminus assumed
SMILES: C[C@@H](O)[C@H](NC(=O)[C@H]1CSSC[C@H](NC(=O)[C@H](N)Cc2ccccc2)C(=O)N[C@@H](Cc2c[nH]cn2)C(=O)N[C@H](Cc2ccccc2)C(=O)N[C@@H](CCCCNC(=N)N)C(=O)N[C@@H](Cc2c[nH]c3ccccc23)C(=O)NCCC(=O)N1)C(N)=O
B11: c[Hydantoin(C(O)-(Ile-Cys))-D-Ala-His-D-Phe-Arg-Trp-Cys]-NH2 (peptide)
peptide: IC[dA]H[dF]RWC-NH2
modifications: disulfide 2-8; also: hydantoin ring from C(O) with Ile1-Cys2
B12: Ac-Tyr-Arg-c(Cys-D-Ala-His-D-Phe-Arg-Trp-Cys)-NH2 (peptide)
peptide: Ac-YRC[dA]H[dF]RWC-NH2
modifications: disulfide 3-9

Legend:
[1] = biological target: hMC1-R (human) (UniProt Q01726); assay: cell-based or functional assay
Chain of hMC1-R (human) (Q01726 whole entry): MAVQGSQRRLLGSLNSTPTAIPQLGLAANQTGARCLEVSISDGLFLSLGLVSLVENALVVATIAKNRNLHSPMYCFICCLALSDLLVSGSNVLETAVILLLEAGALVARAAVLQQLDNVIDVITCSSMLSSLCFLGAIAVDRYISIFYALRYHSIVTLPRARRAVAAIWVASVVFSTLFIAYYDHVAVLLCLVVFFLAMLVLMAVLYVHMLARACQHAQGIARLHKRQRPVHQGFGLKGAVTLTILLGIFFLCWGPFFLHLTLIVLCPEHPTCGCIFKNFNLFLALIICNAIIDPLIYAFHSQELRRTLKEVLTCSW

[2] = biological target: hMC3-R (human) (UniProt P41968); assay: cell-based or functional assay
Chain of hMC3-R (human) (P41968 whole entry): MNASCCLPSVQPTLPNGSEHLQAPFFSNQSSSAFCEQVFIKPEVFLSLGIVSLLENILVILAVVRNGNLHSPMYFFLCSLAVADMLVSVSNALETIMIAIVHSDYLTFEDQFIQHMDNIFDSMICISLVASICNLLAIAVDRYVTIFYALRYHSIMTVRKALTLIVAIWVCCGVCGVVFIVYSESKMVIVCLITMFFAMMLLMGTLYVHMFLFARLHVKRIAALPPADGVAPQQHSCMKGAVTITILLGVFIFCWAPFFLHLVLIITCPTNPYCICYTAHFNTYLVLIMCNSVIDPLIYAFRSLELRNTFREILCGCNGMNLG

[3] = biological target: hMC4-R (human) (UniProt P32245); assay: cell-based or functional assay
Chain of hMC4-R (human) (P32245 whole entry): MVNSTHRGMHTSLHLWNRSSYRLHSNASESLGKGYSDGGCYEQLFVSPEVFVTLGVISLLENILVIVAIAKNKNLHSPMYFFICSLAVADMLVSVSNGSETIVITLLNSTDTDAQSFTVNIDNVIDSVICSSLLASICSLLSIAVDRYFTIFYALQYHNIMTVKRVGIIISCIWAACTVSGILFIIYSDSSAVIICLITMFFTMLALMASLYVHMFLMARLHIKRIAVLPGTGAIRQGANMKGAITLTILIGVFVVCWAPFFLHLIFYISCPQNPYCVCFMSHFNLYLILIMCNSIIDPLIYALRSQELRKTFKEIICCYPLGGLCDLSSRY

[4] = biological target: hMC5-R (human) (UniProt P33032); assay: cell-based or functional assay
Chain of hMC5-R (human) (P33032 whole entry): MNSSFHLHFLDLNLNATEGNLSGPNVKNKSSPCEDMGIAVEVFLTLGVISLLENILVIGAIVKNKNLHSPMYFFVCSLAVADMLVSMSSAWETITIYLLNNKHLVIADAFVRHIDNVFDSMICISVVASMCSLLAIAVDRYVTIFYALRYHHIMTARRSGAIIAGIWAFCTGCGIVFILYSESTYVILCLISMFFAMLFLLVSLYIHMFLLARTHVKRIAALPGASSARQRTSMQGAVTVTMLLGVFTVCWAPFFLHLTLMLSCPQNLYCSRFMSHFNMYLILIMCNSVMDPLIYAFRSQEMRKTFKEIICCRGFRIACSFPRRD

[5] = biological target: hMC1-R (human) (UniProt Q01726); assay: ratio Ki hMC1-R / Ki hMC4-R, same assay
[6] = biological target: hMC1-R (human) (UniProt Q01726); assay: competition with [125I]-NDP-α-MSH, CHO-K1 membranes
[7] = biological target: hMC3-R (human) (UniProt P41968); assay: as above
[8] = biological target: hMC4-R (human) (UniProt P32245); assay: as above
[9] = biological target: hMC5-R (human) (UniProt P33032); assay: as above
[10] = biological target: human melanocortin receptor subtype 1 (hMC1-R) (human), Q01726; assay: [125I]-NDP-α-MSH competition, membranes
Chain of human melanocortin receptor subtype 1 (hMC1-R) (human), Q01726 (Q01726 whole entry): as the sequence (Q01726 whole entry) above

[11] = biological target: human melanocortin receptor subtype 4 (hMC4-R) (human), P32245; assay: [125I]-NDP-α-MSH competition, membranes
Chain of human melanocortin receptor subtype 4 (hMC4-R) (human), P32245 (P32245 whole entry): as the sequence (P32245 whole entry) above

[12] = biological target: human melanocortin receptor subtype 5 (hMC5-R) (human), P33032; assay: [125I]-NDP-α-MSH competition, membranes
Chain of human melanocortin receptor subtype 5 (hMC5-R) (human), P33032 (P33032 whole entry): as the sequence (P33032 whole entry) above

Binder | cAMP EC50 [1] [nM] | cAMP EC50 [2] [nM] | cAMP EC50 [3] [nM] | cAMP EC50 [4] [nM] | other results
B1 | 0.28 | 0.24 | 0.028 | 3.9 | 
B2 | 96.6 | 13.1 | 21.2 | 103 | 
B3 | 0.37 | 0.1 | 0.021 | 1.7 | 
B4 | 14.5 | 21.8 | 0.576 | 1780 | 
B5 | 0.76 | 0.199 | 0.0492 | 1.73 | 
B6 | 0.345 | 2.71 | 5380 | 2.38 | 
B7 | 0.685 | 81.8 | 86.9 | 31.8 | 
B8 | 0.931 | 3.22 | 1.65 | > 10000 | 
B9 | 3.24 | 0.465 | 0.0915 | 78.5 | 
B10 |  |  |  |  | Ki hMC1-R/MC4-R [5]: 0.04; Ki [6]: 0.442 nM; Ki [7]: 123 nM; Ki [8]: 10.3 nM; Ki [9]: 521 nM
B11 |  |  |  |  | Ki [10]: 53.4 nM; Ki [11]: 41.6 nM
B12 |  |  |  |  | Ki [12]: 714 nM
